*1 amine or outer side, *2 acyl side, *3 side chain or, on linkers, in order; H or OH if unused. Bridges are numbered along the chain shown (N, C = ends). Where no end group is shown, it is not given here. [ ]: non-standard residue; d: D form. 1,3‑dibromopropan‑2‑one = linker (CAS 816-39-7) joining two Cys as 1,3-dithio-propan-2-one bridge -SCH2C(=O)CH2S-; 4‑(2-Aminoethyl)benzoyl = O=C(c1ccc(CCN[*:1])cc1)[*:2]; Trp(7-Me) = Cc1cccc2c(C[C@H](N)C(=O)O)c[nH]c12; Bip = N[C@@H](Cc1ccc(-c2ccccc2)cc1)C(=O)O; 2Nal = N[C@@H](Cc1ccc2ccccc2c1)C(=O)O; AEF = NCCOc1ccc(C[C@H](N)C(=O)O)cc1; αMeR = C[C@](N)(CCCNC(=N)N)C(=O)O; 4Pal = N[C@@H](Cc1ccncc1)C(=O)O; αMeL = CC(C)C[C@](C)(N)C(=O)O; CH2COCH2 = O=C(C[*:1])C[*:2]; 3Amb = NCc1cccc(C(=O)O)c1; Orn = NCCC[C@H](N)C(=O)O; Dab = NCC[C@H](N)C(=O)O
T1: human IL-23R endogenously expressed on DB cells (CRL-2289) (human, UniProt Q5VWK5 24-629)
T1 sequence (looked up): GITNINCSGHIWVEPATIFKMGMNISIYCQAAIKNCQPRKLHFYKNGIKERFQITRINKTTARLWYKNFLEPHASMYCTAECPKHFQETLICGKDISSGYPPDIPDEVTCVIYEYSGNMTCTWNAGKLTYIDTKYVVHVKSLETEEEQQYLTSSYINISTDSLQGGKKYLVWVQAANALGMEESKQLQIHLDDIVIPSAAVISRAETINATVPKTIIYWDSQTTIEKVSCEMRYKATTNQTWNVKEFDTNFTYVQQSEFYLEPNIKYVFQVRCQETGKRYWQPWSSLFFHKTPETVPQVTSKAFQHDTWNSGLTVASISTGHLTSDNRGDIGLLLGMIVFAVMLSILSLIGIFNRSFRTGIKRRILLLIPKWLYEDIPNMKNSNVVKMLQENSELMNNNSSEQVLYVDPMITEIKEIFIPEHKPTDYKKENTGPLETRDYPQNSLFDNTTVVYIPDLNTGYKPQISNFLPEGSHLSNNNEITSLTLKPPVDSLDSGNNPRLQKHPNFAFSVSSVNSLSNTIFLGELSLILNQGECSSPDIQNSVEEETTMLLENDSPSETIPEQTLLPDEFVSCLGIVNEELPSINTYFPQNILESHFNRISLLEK

B1: Compound 36 (peptide)
peptide: XSCWQCWXLER
HELM: PEPTIDE1{[bAla].S.C.W.Q.C.W.[O=C([C@H](Cc1ccc2ccccc2c1)N[*:1])[*:2]].L.E.R.[am]}|CHEM1{[O=C(C[*:1])C[*:2]]}$PEPTIDE1,PEPTIDE1,1:R1-10:R3|PEPTIDE1,CHEM1,3:R3-1:R1|PEPTIDE1,CHEM1,6:R3-1:R2$$$V2.0
SMILES: CC(C)C[C@@H]1NC(=O)[C@H](Cc2ccc3ccccc3c2)NC(=O)[C@H](Cc2c[nH]c3ccccc23)NC(=O)[C@@H]2CSCC(=O)CSC[C@H](NC(=O)[C@H](CO)NC(=O)CCNC(=O)CC[C@@H](C(=O)N[C@@H](CCCNC(=N)N)C(N)=O)NC1=O)C(=O)N[C@@H](Cc1c[nH]c3ccccc13)C(=O)N[C@@H](CCC(N)=O)C(=O)N2
B2: Compound 39 (peptide)
peptide: [3Amb]SCWQC[AEF][2Nal]LER-NH2
modifications: lactam N-10; linker 3-6 via CH2COCH2
SMILES: CC(C)C[C@@H]1NC(=O)[C@H](Cc2ccc3ccccc3c2)NC(=O)[C@H](Cc2ccc(OCCN)cc2)NC(=O)[C@@H]2CSCC(=O)CSC[C@H](NC(=O)[C@H](CO)NC(=O)c3cccc(c3)CNC(=O)CC[C@@H](C(=O)N[C@@H](CCCNC(=N)N)C(N)=O)NC1=O)C(=O)N[C@@H](Cc1c[nH]c3ccccc13)C(=O)N[C@@H](CCC(N)=O)C(=O)N2
B3: Compound 69 (peptide)
peptide: [3Amb]SEWQ[Orn][AEF][2Nal][αMeL]ER-NH2
modifications: lactam (positions not given here); lactam 3-6; not fully specified (bridges); printed as [(3-Aminomethyl)benzoyl](1c)*SE(2c)WQ[Orn](2c)[Y(2-aminoethoxy)][2-Nal][2-Me-Leu]E(1c)R-[NH2]
B4: Compound 68 (peptide)
peptide: [3Amb]S[Orn]WQE[AEF][2Nal][αMeL]ER-NH2
modifications: lactam (positions not given here); lactam 3-6; not fully specified (bridges); printed as [(3-Aminomethyl)benzoyl](1c)*S[Orn](2c)WQE(2c)[Y(2-aminoethoxy)][2-Nal][2-Me-Leu]E(1c)R-[NH2]
B5: Compound 42 (peptide)
peptide: [3Amb]SCWQC[AEF][2Nal][αMeL]E[αMeR]-NH2
modifications: lactam N-10; linker 3-6 via CH2COCH2
SMILES: CC(C)C[C@]1(C)NC(=O)[C@H](Cc2ccc3ccccc3c2)NC(=O)[C@H](Cc2ccc(OCCN)cc2)NC(=O)[C@@H]2CSCC(=O)CSC[C@H](NC(=O)[C@H](CO)NC(=O)c3cccc(c3)CNC(=O)CC[C@@H](C(=O)N[C@@](C)(CCCNC(=N)N)C(N)=O)NC1=O)C(=O)N[C@@H](Cc1c[nH]c3ccccc13)C(=O)N[C@@H](CCC(N)=O)C(=O)N2
B6: Compound 70 (peptide)
peptide: [3Amb]SC[Trp(7-Me)]QC[AEF][2Nal][αMeL]ER-NH2
modifications: lactam (positions not given here); linker 3-6 via CH2COCH2; not fully specified (bridges)
B7: Compound 38 (peptide)
peptide: [3Amb]SCWQC[AEF][2Nal][αMeL]ER-NH2
modifications: lactam N-10; linker 3-6 via CH2COCH2
SMILES: CC(C)C[C@]1(C)NC(=O)[C@H](Cc2ccc3ccccc3c2)NC(=O)[C@H](Cc2ccc(OCCN)cc2)NC(=O)[C@@H]2CSCC(=O)CSC[C@H](NC(=O)[C@H](CO)NC(=O)c3cccc(c3)CNC(=O)CC[C@@H](C(=O)N[C@@H](CCCNC(=N)N)C(N)=O)NC1=O)C(=O)N[C@@H](Cc1c[nH]c3ccccc13)C(=O)N[C@@H](CCC(N)=O)C(=O)N2
B8: Compound 26 (peptide)
peptide: Ac-KSC[Bip]QCW[2Nal]LER-NH2
modifications: lactam 1-10; linker 3-6 via CH2COCH2
SMILES: CC(=O)N[C@H]1CCCCNC(=O)CC[C@@H](C(=O)N[C@@H](CCCNC(=N)N)C(N)=O)NC(=O)[C@H](CC(C)C)NC(=O)[C@H](Cc2ccc3ccccc3c2)NC(=O)[C@H](Cc2c[nH]c3ccccc23)NC(=O)[C@@H]2CSCC(=O)CSC[C@H](NC(=O)[C@H](CO)NC1=O)C(=O)N[C@@H](Cc1ccc(-c3ccccc3)cc1)C(=O)N[C@@H](CCC(N)=O)C(=O)N2
B9: Compound 56 (peptide)
peptide: Ac-DEQCWQC[2Nal]W[αMeL]KR-NH2
modifications: lactam 2-11; linker 4-7 via CH2COCH2
SMILES: CC(=O)N[C@@H](CC(=O)O)C(=O)N[C@H]1CCC(=O)NCCCC[C@@H](C(=O)N[C@@H](CCCNC(=N)N)C(N)=O)NC(=O)[C@](C)(CC(C)C)NC(=O)[C@H](Cc2c[nH]c3ccccc23)NC(=O)[C@H](Cc2ccc3ccccc3c2)NC(=O)[C@@H]2CSCC(=O)CSC[C@H](NC(=O)[C@H](CCC(N)=O)NC1=O)C(=O)N[C@@H](Cc1c[nH]c3ccccc13)C(=O)N[C@@H](CCC(N)=O)C(=O)N2
B10: Compound 79 (peptide)
peptide: [3Amb]SCWQC[AEF][2Nal][αMeL]ER[4Pal]-NH2
modifications: lactam (positions not given here); linker 3-6 via CH2COCH2; not fully specified (bridges); printed as [(3-Aminomethyl)benzoyl](1c)*SC(2a)WQC(2a)[Y(2-aminoethoxy)][2-Nal][2-Me-Leu]E(1c)R[3-(4-Pyridyl)-Ala]-[NH2]
B11: Compound 44 (peptide)
peptide: [3Amb]SCWQC[AEF][2Nal][αMeL]ES-NH2
modifications: lactam N-10; linker 3-6 via CH2COCH2
SMILES: CC(C)C[C@]1(C)NC(=O)[C@H](Cc2ccc3ccccc3c2)NC(=O)[C@H](Cc2ccc(OCCN)cc2)NC(=O)[C@@H]2CSCC(=O)CSC[C@H](NC(=O)[C@H](CO)NC(=O)c3cccc(c3)CNC(=O)CC[C@@H](C(=O)N[C@@H](CO)C(N)=O)NC1=O)C(=O)N[C@@H](Cc1c[nH]c3ccccc13)C(=O)N[C@@H](CCC(N)=O)C(=O)N2
B12: Compound 50 (peptide)
peptide: [4‑(2-Aminoethyl)benzoyl]SCWQC[AEF][2Nal][αMeL]ER-NH2
modifications: lactam N-10; linker 3-6 via CH2COCH2
SMILES: CC(C)C[C@]1(C)NC(=O)[C@H](Cc2ccc3ccccc3c2)NC(=O)[C@H](Cc2ccc(OCCN)cc2)NC(=O)[C@@H]2CSCC(=O)CSC[C@H](NC(=O)[C@H](CO)NC(=O)c3ccc(cc3)CCNC(=O)CC[C@@H](C(=O)N[C@@H](CCCNC(=N)N)C(N)=O)NC1=O)C(=O)N[C@@H](Cc1c[nH]c3ccccc13)C(=O)N[C@@H](CCC(N)=O)C(=O)N2

What follows are binders tested against T1, human IL-23R endogenously expressed on … (assay: cell-based or functional assay).

Binder | IC50 (pSTAT3)
B1 | > 1 µM
H-LCSCWQCWWLCR-NH2 (linker 2-11, 4-7 via CH2COCH2) [Compound 2] | 755 nM
cyclo(DSCWQCWWLR) (linker 3-6 via 1,3‑dibromopropan‑2‑one) [Compound 6] | > 1 µM
B2 | 19.6 nM
B3 | 41.1 nM
B4 | 63.9 nM
B5 | 24.7 nM
Ac-DCQCWQCYW[αMeL]CR-NH2 (linker 2-11, 4-7 via CH2COCH2) [Compound 63] | > 1 µM
H-DCSEWQKWWLCR-NH2 (linker 2-11 via 1,3‑dibromopropan‑2‑one; lactam 4-7) [Compound 5] | > 1 µM
[3‑(4-Aminophenyl)propanoyl]SCWQC[AEF][2Nal][αMeL]ER-NH2 (lactam N-10; linker 3-6 via CH2COCH2) [Compound 51] | 68.1 nM
B6 | 8.43 nM
B7 | 19.3 nM
[(4-Aminomethyl)benzoyl]SCWQC[AEF][2Nal][αMeL]ER-NH2 (lactam N-10; linker 3-6 via CH2COCH2) [Compound 49] | 20.3 nM
B8 | > 1 µM
B9 | > 1 µM
B10 | 21.3 nM
B11 | 82.3 nM
B12 | 51.1 nM
Ac-DCQCWQC[2Nal]W[αMeL]CR-NH2 (linker 2-11, 4-7 via CH2COCH2) [Compound 62] | > 1 µM
[3Amb]SEWQ[Dab][AEF][2Nal][αMeL]ER-NH2 (lactam (positions not given here); lactam 3-6; not fully specified (bridges)) [Compound 67] | 35.3 nM
Ac-DESCAQCWWLKR-NH2 (lactam 2-11; linker 4-7 via 1,3‑dibromopropan‑2‑one) [Compound 13] | > 1 µM
Ac-DESCWQCWALKR-NH2 (lactam 2-11; linker 4-7 via 1,3‑dibromopropan‑2‑one) [Compound 15] | > 1 µM
Ac-DESCWQCAWLKR-NH2 (lactam 2-11; linker 4-7 via 1,3‑dibromopropan‑2‑one) [Compound 14] | > 1 µM
